Here are results for one molecule from paper doi:10.1101/2024.09.03.610921 (bioRxiv, 2024).

This assay deals with recombinant human histone H3.1 (human, UniProt P68431 1-136). In words: pull-down.

B1: RAGE^124-341-His-FLAG (extracellular region of RAGE lacking the V domain) (domain or fragment)
chain: PEIVDSASELTAGVPNKVGTCVSEGSYPAGTLSWHLDGKPLVPNEKGVSVKEQTRRHPETGLFTLQSELMVTPARGGDPRPTFSCSFSPGLPRHRALRTAPIQPRVWEPVPLEEVQLVVEPEGGAVAPGGTVTLTCEVPAQPSPQIHWMKDGVPLPLPPSPVLILPEIGPQDQGTYSCVATHSSHGPQESRAVSISIIEPGEEGPTAGSVGGSGLGTL
Regarding B1, the binding result is “binds”.
